B2: full-length (FL) yeast Hrr25, nonphosphorylated (enzyme, Saccharomyces cerevisiae (budding yeast), UniProt P29295 1-494, looked up)
chain: MDLRVGRKFRIGRKIGSGSFGDIYHGTNLISGEEVAIKLESIRSRHPQLDYESRVYRYLSGGVGIPFIRWFGREGEYNAMVIDLLGPSLEDLFNYCHRRFSFKTVIMLALQMFCRIQYIHGRSFIHRDIKPDNFLMGVGRRGSTVHVIDFGLSKKYRDFNTHRHIPYRENKSLTGTARYASVNTHLGIEQSRRDDLESLGYVLIYFCKGSLPWQGLKATTKKQKYDRIMEKKLNVSVETLCSGLPLEFQEYMAYCKNLKFDEKPDYLFLARLFKDLSIKLEYHNDHLFDWTMLRYTKAMVEKQRDLLIEKGDLNANSNAASASNSTDNKSETFNKIKLLAMKKFPTHFHYYKNEDKHNPSPEEIKQQTILNNNAASSLPEELLNALDKGMENLRQQQPQQQVQSSQPQPQPQQLQQQPNGQRPNYYPEPLLQQQQRDSQEQQQQVPMATTRATQYPPQINSNNFNTNQASVPPQMRSNPQQPPQDKPAGQSIWL
notes: cloned into pFastBacHT A with a TEV cleavage site after the tag; also called FL Hrr25; Hrr25 WT; source: Trichoplusia ni High Five cells, purified (NiNTA, gel filtration)

How the values were obtained:
Assay in all cases: pull-down; 20 μg GST-tagged bait mixed with equimolar Hrr25 variant, GST Sepharose 4B, 1 h at 4°C; 20 mM Tris pH 7.5, 150 mM NaCl, 0.5% Tween 20, 2 mM DTT, 2 mM MgCl2; three washes; SDS-PAGE and WB with Hrr25-specific antibodies
Details in all cases: both partners purified
[1] = target: T1, GST-Elp1 1-734 (Saccharomyces cerevisiae (budding yeast), UniProt Q06706 1-734)
T1 construct: also called truncated form of GST-Elp1
T1 sequence (looked up): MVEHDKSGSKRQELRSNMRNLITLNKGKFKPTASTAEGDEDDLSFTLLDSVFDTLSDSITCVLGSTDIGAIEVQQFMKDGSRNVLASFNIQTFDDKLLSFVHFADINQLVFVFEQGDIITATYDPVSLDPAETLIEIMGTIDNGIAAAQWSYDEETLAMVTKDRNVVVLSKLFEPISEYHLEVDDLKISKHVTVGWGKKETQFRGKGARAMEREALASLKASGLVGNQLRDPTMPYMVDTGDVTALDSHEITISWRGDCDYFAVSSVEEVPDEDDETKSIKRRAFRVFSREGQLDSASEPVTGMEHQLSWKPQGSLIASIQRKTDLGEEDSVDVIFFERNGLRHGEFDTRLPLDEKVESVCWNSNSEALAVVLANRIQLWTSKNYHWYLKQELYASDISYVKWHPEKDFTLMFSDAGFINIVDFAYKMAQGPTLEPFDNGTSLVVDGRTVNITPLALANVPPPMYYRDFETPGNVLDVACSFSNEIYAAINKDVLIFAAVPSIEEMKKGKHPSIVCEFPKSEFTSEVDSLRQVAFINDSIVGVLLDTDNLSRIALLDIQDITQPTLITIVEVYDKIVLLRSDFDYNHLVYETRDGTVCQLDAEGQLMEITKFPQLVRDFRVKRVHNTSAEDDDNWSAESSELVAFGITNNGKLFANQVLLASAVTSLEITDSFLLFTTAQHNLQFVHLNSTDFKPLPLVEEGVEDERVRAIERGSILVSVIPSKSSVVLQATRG

[2] = target: T2, FL GST-Elp1 (Saccharomyces cerevisiae (budding yeast), UniProt Q06706 1-1349)
T2 construct: Elp1, Elongator subunit of Saccharomyces cerevisiae, full length, expressed from the pETM30 vector; also called Elongator subunit Elp1
T2 sequence (looked up): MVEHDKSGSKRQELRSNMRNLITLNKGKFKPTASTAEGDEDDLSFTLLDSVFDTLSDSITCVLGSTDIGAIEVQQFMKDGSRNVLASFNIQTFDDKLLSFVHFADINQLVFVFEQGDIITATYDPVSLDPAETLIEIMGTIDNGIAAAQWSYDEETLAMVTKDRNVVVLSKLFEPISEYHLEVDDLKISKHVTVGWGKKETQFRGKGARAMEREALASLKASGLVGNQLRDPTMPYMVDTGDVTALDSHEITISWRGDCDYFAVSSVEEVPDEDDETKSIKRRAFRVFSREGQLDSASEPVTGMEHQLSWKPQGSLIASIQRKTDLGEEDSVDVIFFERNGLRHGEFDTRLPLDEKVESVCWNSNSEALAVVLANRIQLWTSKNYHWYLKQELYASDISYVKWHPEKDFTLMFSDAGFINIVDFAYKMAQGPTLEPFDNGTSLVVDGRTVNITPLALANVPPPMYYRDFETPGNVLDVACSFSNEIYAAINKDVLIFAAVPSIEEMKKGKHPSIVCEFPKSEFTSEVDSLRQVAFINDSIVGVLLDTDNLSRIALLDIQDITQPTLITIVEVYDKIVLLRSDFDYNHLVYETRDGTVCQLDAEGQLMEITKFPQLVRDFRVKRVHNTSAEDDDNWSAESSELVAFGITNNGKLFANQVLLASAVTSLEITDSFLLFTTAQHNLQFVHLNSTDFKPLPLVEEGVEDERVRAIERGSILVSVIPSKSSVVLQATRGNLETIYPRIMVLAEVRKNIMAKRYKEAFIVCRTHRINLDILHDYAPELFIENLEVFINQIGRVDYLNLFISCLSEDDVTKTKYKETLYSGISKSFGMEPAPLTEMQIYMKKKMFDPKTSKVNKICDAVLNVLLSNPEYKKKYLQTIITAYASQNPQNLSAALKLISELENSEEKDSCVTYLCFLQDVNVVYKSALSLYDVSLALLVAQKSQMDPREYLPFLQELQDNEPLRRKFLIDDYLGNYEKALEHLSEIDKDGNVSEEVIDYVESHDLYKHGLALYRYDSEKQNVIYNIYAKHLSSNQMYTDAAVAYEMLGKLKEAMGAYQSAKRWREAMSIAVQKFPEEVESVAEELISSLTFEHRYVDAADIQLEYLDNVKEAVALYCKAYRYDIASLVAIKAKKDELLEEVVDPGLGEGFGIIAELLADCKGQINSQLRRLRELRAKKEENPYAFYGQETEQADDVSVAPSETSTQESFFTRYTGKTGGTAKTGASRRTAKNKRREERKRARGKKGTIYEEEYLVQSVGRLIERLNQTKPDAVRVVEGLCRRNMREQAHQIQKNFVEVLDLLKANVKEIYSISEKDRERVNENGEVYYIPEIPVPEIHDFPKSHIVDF

[3] = target: B2
[4] = target: T3, Hrr25 1-394, nonphosphorylated (Saccharomyces cerevisiae (budding yeast), UniProt P29295 1-394)
T3 construct: pETM11 with a TEV cleavage site after the tag; also called P/Q truncation; truncation variant lacking the P/Q-rich region; source: E. coli pRARE cells, purified (NiNTA, gel filtration)
T3 sequence (looked up): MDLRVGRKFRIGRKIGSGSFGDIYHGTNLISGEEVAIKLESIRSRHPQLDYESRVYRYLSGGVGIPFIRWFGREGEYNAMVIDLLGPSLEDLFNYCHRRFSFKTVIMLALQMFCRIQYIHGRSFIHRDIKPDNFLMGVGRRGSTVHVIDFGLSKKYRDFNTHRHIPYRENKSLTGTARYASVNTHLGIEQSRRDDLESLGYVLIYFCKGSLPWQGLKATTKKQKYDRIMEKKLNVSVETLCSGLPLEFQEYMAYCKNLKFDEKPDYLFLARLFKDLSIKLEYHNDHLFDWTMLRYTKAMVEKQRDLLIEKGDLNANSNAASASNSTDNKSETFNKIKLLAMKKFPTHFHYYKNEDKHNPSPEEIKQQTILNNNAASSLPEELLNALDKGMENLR

B1: Hrr25 1-394, autophosphorylated (domain or fragment, Saccharomyces cerevisiae (budding yeast), UniProt P29295 1-394, looked up)
chain: MDLRVGRKFRIGRKIGSGSFGDIYHGTNLISGEEVAIKLESIRSRHPQLDYESRVYRYLSGGVGIPFIRWFGREGEYNAMVIDLLGPSLEDLFNYCHRRFSFKTVIMLALQMFCRIQYIHGRSFIHRDIKPDNFLMGVGRRGSTVHVIDFGLSKKYRDFNTHRHIPYRENKSLTGTARYASVNTHLGIEQSRRDDLESLGYVLIYFCKGSLPWQGLKATTKKQKYDRIMEKKLNVSVETLCSGLPLEFQEYMAYCKNLKFDEKPDYLFLARLFKDLSIKLEYHNDHLFDWTMLRYTKAMVEKQRDLLIEKGDLNANSNAASASNSTDNKSETFNKIKLLAMKKFPTHFHYYKNEDKHNPSPEEIKQQTILNNNAASSLPEELLNALDKGMENLR
modifications: autophosphorylation sites mapped by MS: the sites detected in full length Hrr25 (Thr27, Ser31, Ser143, Thr144, Ser181, Ser191, Ser198) and in addition Ser41, Ser44, Ser60, Ser153, Thr161, Ser236, Thr239, Ser242, Tyr266, Ser317, Thr326, Ser330, Thr346, Ser376
notes: source: E. coli pRARE cells, purified (NiNTA, gel filtration); incubated with 1 mM ATP for 1 h at 30°C
binding result [1]: binds

B2
binding result [2]: binds

B3: full-length (FL) yeast Hrr25, autophosphorylated (enzyme, Saccharomyces cerevisiae (budding yeast), UniProt P29295 1-494, looked up)
chain: MDLRVGRKFRIGRKIGSGSFGDIYHGTNLISGEEVAIKLESIRSRHPQLDYESRVYRYLSGGVGIPFIRWFGREGEYNAMVIDLLGPSLEDLFNYCHRRFSFKTVIMLALQMFCRIQYIHGRSFIHRDIKPDNFLMGVGRRGSTVHVIDFGLSKKYRDFNTHRHIPYRENKSLTGTARYASVNTHLGIEQSRRDDLESLGYVLIYFCKGSLPWQGLKATTKKQKYDRIMEKKLNVSVETLCSGLPLEFQEYMAYCKNLKFDEKPDYLFLARLFKDLSIKLEYHNDHLFDWTMLRYTKAMVEKQRDLLIEKGDLNANSNAASASNSTDNKSETFNKIKLLAMKKFPTHFHYYKNEDKHNPSPEEIKQQTILNNNAASSLPEELLNALDKGMENLRQQQPQQQVQSSQPQPQPQQLQQQPNGQRPNYYPEPLLQQQQRDSQEQQQQVPMATTRATQYPPQINSNNFNTNQASVPPQMRSNPQQPPQDKPAGQSIWL
modifications: autophosphorylation sites mapped by MS: phospho-Thr27, Ser31, Ser143, Thr144, Ser181, Ser191, Ser198, Ser438, Thr449, Thr453, Ser461, Ser470, Ser491
notes: Hrr25, casein kinase 1 of Saccharomyces cerevisiae, full length, after autophosphorylation with ATP; also called pHrr25; autophosphorylated FL kinase; source: Trichoplusia ni High Five cells, purified (NiNTA, gel filtration); incubated with 1 mM ATP for 1 h at 30°C
binding result [2]: binds

B4: GST-tagged Sit4 (enzyme, Saccharomyces cerevisiae (budding yeast), UniProt P20604 1-311, looked up)
chain: MVSRGPDEWLETIKKCQALTENEMKQLCEMVKELLMEESNIQPVQTPVTVCGDIHGQFHDLLELFRTAGGFPDDINYIFLGDYVDRGYYSLETFTLLMCLKVKYPAKITLVRGNHESRQITQVYGFYEECLNKYGSTTVWKYCCQVFDFLTLAAIIDGKILCVHGGLSPEIRMLDQIRVLSRAQEVPHEGGFSDLLWSDPDNVEAWQVSPRGAGWLFGSKVAREFNHVNGLNLIARAHQLVMEGFKYHFPEKDVVTVWSAPNYCYRCGNVASVMKVDEDLEPTFKIFSAVPDDYIRESTANHNNQRAGYFL
notes: Sit4, phosphatase of Saccharomyces cerevisiae, expressed from the pETM30 vector; also called GST-Sit4; Sit4 phosphatase
binding result [3]: binds
binding result [4]: binds
